The record followed here is a protein production outcome set (Wang et al. 2014).

The nature of this data set: label from the status in PepcDB records.
In the case of “MDLTKQFPRSPVDRLGGMDHLKRVIDKARAHVAGTLGEYTYNCPLDQAFFSFFGLDHEKFAEAVKSRPQDQDMLAWVHSQSPRSKNPKEVESFNREYESRSPDSPEKWDYFRSVRDSLAPGRTDITTWVKLLDLEEKRPV”, the protein production result is given as “not failed”.
As to “MERNRRRNADNNTVVDQGGVFFDGCDTDEAFGPSSRDVPFQHDSVKSKPNLYGGG”, the protein production result was “not failed”.
Take “MKDAKSFNDLYKASIYTMLGSIYAPSGGVIAAPTTSLPEVEGGKRNWDYRFAWVRDSSIIAEALLEAGSIVEARRIINFLLSLINFSSKPFYYPLYTIEGTIPPPERELRWLSGYKNSKPVRIGNGASSQIQLDIEGFFISALYKYVKMTNDQVFLKDVFSKVKYIGDWISENWSLKDSGIWEDRGSPQHYTHSKIMMWIALDKIGKLANLIGYADIWAKEREKLRNWIFTNCVKNNYFIRYCGNTDDVDSSLLSAPLYGFIEVSDSTFINTLTKIENDLKTDVFVKRYKTDFMGEAKHPFLLTTVWLARVYMRLGKIDSAIEILNKINKVSRELHLVGEHVDVEKGEFTGNFPQIFVHAQLVIAIKELNDTLEHHHHHH”: the protein production result is “failed”.
The value for “MNLPFAPQSFAALLVMVMTLAHGSVSAQESFRVELGRDGETLGDMRPVFLKFESRPLPAISPLEVARRYQKLFESSDEPEVRIDALNRLNNIRNRSGEDVGFSEEREAAIYEEVLESYESILAKGSFSGRLDELLYQMAKAHALTGQPEQSIARLKQLVGLYPNSELVPEARFRIAEAAFSAGRYAEAEAGYRQLLEHDSHQELAAKARYMLGWSQFKQGNPAWARASASFTAVLDQQLPDHSALANPPAHSMDMLEDTFRVLALMASRQSDARTLADWLDGRESSAWQHLLYDRLADLHAVERRYERAVLVNNAFVSEFPGHTASPDFLAQSVSYWQLAGNTSKALAARDDYIQRLGAEARFQTMTPEQKGLWAQYSRFLADHYYATGTDLSSRNQTAAASEAWAKAAHYYERLAPRSEQAGELLHLAGDARLLAGDRTEAVRNFRAAAYDHRHGDSRDSAWAAIRIVREDLELASGENRTATLLVLSNEEQRYAEAFGPDQRLSGLRADLANRWYDLGEFERALHYASSTLTWERAGVTERYAAWLVTARIRQKNNEFGLAERAWRQALPLADEASQDAESQRRSLLEQLASAIYQQGEKAARAGDATLAVAHFQRVEGVMPGSEIAIKARYDAANTLLRASDWLAAINELQRFRIDYPSHELTPETSEKLVLAYQESGQGLKAAEELLNRSETLADPWPTRLRAAAIFHAEGDSASRNQLYKNWLAVAPTPDSADEHVQHQTMRQRLIESGDSVIAVREQLLARERASQWHSDGTLKWAADAALFFGAQTAERFAGIALVHPLEQALARKQAAMQQAQEYLQEAESFAGDGVRSEVLYRRAELYRTLASDLMSSEVPAELNEMEAMQYQMLLEEEAFPLEEEAMALHARNHERIPTEGFDEWIQRSLEALATMHPGRYDRQLRWMSWTTDTNQGGS” was “failed”.
Regarding “MLKTILSISGKPGLFKLVSHGKNMLIVESLADKKRVPAYAKDKVISLGDIAIYTNEAEVPLHEVLTNVKNKENGQQASVSTSAKPDELRAYFAEILPNFDRERVYPSDIKKLISWYNILIGAGLTEFTPEGSATEEASVKETKKEEA”, the protein production result is “failed”.
As to “MLRPRTIKEGSVGLFALLGLFIIGGIVLWLRGGAFGNPGYEVLVQFDDASGLQVGGAVRYRGVPVGRVAKLIPGSNGILAQLEISSTQLRIPADVQVEISRYGLLGEAAIDMIPDRQLSEAALAIDPLSADCAESDKILCDGDELEGQAGTQLTNSMARLAQAYSEPEFVADINATVKSANLAAARIAAMSAEITALSKTANQQVRGFERTSEAIAKAADNASLLTSRVDQVVQTNQGYINRTIEEASLLMVNLNQLVGENRAQFNLTLKSIETTNRDLQAIGQEIQTAVGTINHGLAAIDTQKVTNDLALLMENAAVTSNNIRQISNDLNDPTLMLTLQQTLDAARLTFENAQKITSDVEQLTGDPAFRNNLRKLVDGLGQLVSSTENLQDRVYTAHTLERSGQQLRFQLDHQQQLALYYEQWGVINPVPASGSPSPQIQTPKIKPPQPKENQGK”, the protein production entry is “failed”.
Then “TSIRQGASNVICAYRRDEENMPGSRREVKNAKEEGVKFMFNLQPLGIEVDAYGKVSGVKVVKTALGEPDDAGRRRPEPVEGSEHVLPADAVIMAFGFQPHQMDWLTPFNVELDQWGRIKAPNNQEFQYQTSNEKIFAGGDAVRGSDLVVTAIDEGRKAAEGILDYLDV”, with “failed”.
The value for “MENWDLSSDEMQDGNAPELDVIEEHNPVTRDDENANPEEVVGDTRSPVQNILGKFEGDINKRLHIKRKRMETYIKDSFKDSNVKLEQLWKTNKQERKKINNKFCEQYITTFQKFDMDVQKFNEEQEKSVNNYQKEQQALKLSKCSQSQTLEAIKDMHENYMEGLMNLETNNYNMLFDVDGELRKEMSVFKKDLMKHTLKYSSSFPSSD” was “failed”; that for “MPHFTKRPAQPQAALAEAAGLRWLAEASSAVAQVVSADAEQITTVGVETQLPTPDAAFKAGEELARIHLAGAPAFGCPPAGWAGLNYIGTQGQACLSTPTWGVFYSQQRVLPFARRARRRNHLTEHALWVVEAACDLISELPDDVPPARIHGDLWFGNLLFGTDGPVFIDPAAHGGHPETDLAMLDVFGAPYLDEIREGYLSINPLPDGWRERTPMHQLHPLAVHAASHGPSYGVELLHAAKATLKLLDLEHHHHHH” was “failed”.
Then “MRNMNIYDSLLGAVHSEYDVLMLIKKSERGEVSLVRHRDSGTRYIFRHFYGNSEVYQKLLNVSCPNLPQIMEVGEKDGKTALLEEYVQGDTLSEILEGGLLTIAESKQIARQLCSALWVFHSMGVVHRDVKPDNVIIRGKEAVLIDFDASRIYKSTIQEDTQILGTTGFAAPEQYGLSQSDGRADIYALGVLLNIMLTGEHPSRKLAGGRMGRIVQRCTMVNPSKRYKNILHLLEVL”, with “failed”; and “MMNKNKTLEYYNKNADNFAKTTINVDFYETQNRFSTLLPEHGYILDFGCGSGRDTKYFLDQGFYVDATDGSEEMCHIASNYTGIQVRRLLFEELDENKKYDGIWACSSILHLPKNELKAVFMKMLKALKEDGIIYTSFKYGDFEGERNGRYFTDFTEKTFEEFVGEIDNLQLKEEWITGDVRPGRGEEKWLNVILQKN”, with “failed”; and “MYRDRVRLPSLLDKVMSAAEAADLIQDGMTVGMSGFTRAGEAKAVPQALAMRAKERPLRISLMTGASLGNDLDKQLTEAGVLARRMPFQVDSTLRKAINAGEVMFIDQHLSETVEQLRNHQLKLPDIAVIEAAAITEQGHIVPTTSVGNSASFAIFAKQVIVEINLAHSTNLEGLHDIYIPTYRPTRTPIPLTRVDDRIGSTAIPIPPEKIVAIVINDQPDSPSTVLPPDGETQAIANHLIDFFKREVDAGRMSNSLGPLQAGIGSIANAVMCGLIESPFENLTMYSEVLQDSTFDLIDAGKLRFASGSSITLSPRRNADVFGNLERYKDKLVLRPQEISNHPEVVRRLGIIGINTALEFDIYGNVNSTHVGGTKMMNGIGGSGDFARNAHLAIFVTKSIAKGGNISSVVPMVSHVDHTEHDVDILVTEQGLADLRGLAPRERARVIIENCVHPSYQAPLLDYFEAACAKGGHTPHLLREALAWHLNLEERGHMLAG”, with “not failed”.
For “MMNDIAHNLAQVRDKISAAATRCGRSPEEITLVAVSKTKPASAIAEAIDAGQRQFSEHYVQEGVDKIRHFQELGVTGLEWNFAGPLQSNKSRLVAEHFDWCITIDRLRIATRLNDQRPAELPPLNVLIQINISDENSKSGIQLAELDELAAAVAELPRLRLRGLSAIPAPESEYVRQFEVARQMAVAFAGLKTRYPHIDTLALGQSDDMEAAIAAGSTMVAIGTAIFGARDYSKKGSLEHHHHHH”, the protein production entry is “not failed”.
In the case of “MSLRGELRVGLEPGYLPFEMKDKKGNVIGFDVDLAREMAKAMGVKLKLVPTSWDGLIPGLVTEKFDIIISGMTISQERNLRVNFVEPYIVVGQSLLVKKGLEKGVKSYKDLDKPELTLVTKFGVSAEYAAKRLFKNAKLKTYDTEAEAVQEVLNGKADMFIFDLPFNVAFMAQKGQGYLVHLDTSLTYEPLGWAIKKGDPDFLNWLNHFLAQIKHDGSYDELYERWFVDTKWLEKIQEGHHHHHH”, the protein production result was “not failed”.
With “MKDFFKDQFFKALEKNTIFSRADVQGNLIFVSDKLCQISGYSKKELIGKKHSIFKHPDVEECYIEELLKKLSYKKPYQVIFKNIDKLGKTFYLETLLIPILDKNNELIEIVAFSHDVSNSFKLNEELALNHAKLRELSINLENTVKNHQQEFIQLGKKFEKKMQIALEKNEKDIKIAYEEILKSSLEQMISDIAHQWRQPLNELGIAMFQMKQNLKDEKGFAEIYSQSKDMIKNMSETIDVFRTLFNKGVEQCVFIKETLNKALEIAFETIEKNHVNINIVSKSDYEVLAYENGLIRVFLNLILNSIEAFKNKKRKIITINFSKFGKNYLKITIKDNAGGIDKENLDKIFQPYFTTKHPSQGIGVGLYISRQIIESFQGKIKVKNGKDGACFEIFLKLKERVE”, the protein production result is reported as “failed”.
“MKPEISIIVPIYNVEKYLSKCIDSILNQSFTNFELILVNDGSNDRSGIICDEYTLKDERIRVIHKKNGGVSSARNSGISLALGKYIGFVDPDDYIKEEMYEILYNLCKKYKTDISICKLGREINGTLINNEENGEIIELDNVNGLKELFKGILYRFSLCNKLFKRECFRGVIFPEGRIHEDLSTTYRLFANAKKSIYFDYVGYIYVKRENSILTTTYNEKRLQAFIGWNEILEFMINKYPMLEDNVVACFGYSCIDHSNYILNQVIGFNNKIRLLNFIRYEVKQRFSLLVKNKILINKLKLILILLMLNSRFLIISKYKGKGVYRKRIRI”: the protein production result is listed as “failed”.
“MKRYIYLFVSVFTLVMASCQQEETSNGKTGFLQFSVEKNTSTILVPATRAEELPIALQVVDRAGTVVKETDDWHNWTSTPLELPLGSYTINAFSKGVDVGTAGFDEPYYWGQSEVTVVPKVNQSVNIECRLANVKVTVNYSADVKKYFSKLNCSVGNSSGKLVFGKDETRSGYFAVDKLNISLALTNTDGRSFVFESEPITDVKERQHYRINYTMKANGAIGGVSVTLDPSTKEYNVNIAIPKESNPSVNVWSDFADVTLPLPDGVVTKECKYRISGTEDWNTVSNVEQADGKLVATITGLIPGTEYDFCFAINGVNGKITTATTELQKQLENGSFDEWNQNGKTWFPGTAAEASAKNSYWDTGNVGAATMSKNPSIGESNDVHTVGGKSAKLSSQFVGMFGIGKFAAGNIYIGRYMETYTSPMGARIRFGREFTSRPTQLKGWYKYTRGTSIDRGDHNVEELKNSGGDKCAIYIALTDNEGLVDDNGVKTAYEVNNNKEGSPTRYTVDLSEANKDVIAYGSITDEESKGSFDESGNVVWKQFTIDLKYRDLTRKPKYIIVVASASKYGDFFTGSESSVMLIDDFELVYGTPVTAN”: the protein production entry is “failed”.
In the case of “MHYQPKQDLLNDRIILVTGASDGIGREAAMTYARYGATVILLGRNEEKLRQVASHINEETGRQPQWFILDLLTCTSENCQQLAQRIAVNYPRLDGVLHNAGLLGDVCPMSEQNPQVWQDVMQVNVNATFMLTQALLPLLLKSDAGSLVFTSSSVGRQGRANWGAYAASKFATEGMMQVLADEYQQRLRVNCINPGGTRTAMRASAFPTEDPQKLKTPADIMPLYLWLMGDDSRRKTGMTFDAQPGRKPGISQ”, the protein production entry is recorded as “failed”.
